Ki, Gαq activation (GABY BRET sensor, HEK293 cells expressing AT1R), EC50 and β-arrestin2 recruitment (BRET, HEK293 cells expressing AT1R), EC50 data for 21 substances are collected here from article doi:10.1101/2025.08.13.670122.

Like-named read-outs stand apart in the source and are kept apart here.

In experiment [1] the target is human Angiotensin II Type 1 receptor (human) (UniProt P30556).
Experiment [2] has the same target. This is another data set of the same source.
The target is the same in experiment [3]. The source holds these as a separate data set.
The target is the same in experiment [4]. This is another data set of the same source.
For experiment [5] the target is unchanged. This is another data set of the same source.
Experiment [6] has the same target. The source holds these as a separate data set.
The target is the same in experiment [7]. As to the kind of experiment: radioligand binding.

human Angiotensin II Type 1 receptor (human), sequence (P30556 whole entry): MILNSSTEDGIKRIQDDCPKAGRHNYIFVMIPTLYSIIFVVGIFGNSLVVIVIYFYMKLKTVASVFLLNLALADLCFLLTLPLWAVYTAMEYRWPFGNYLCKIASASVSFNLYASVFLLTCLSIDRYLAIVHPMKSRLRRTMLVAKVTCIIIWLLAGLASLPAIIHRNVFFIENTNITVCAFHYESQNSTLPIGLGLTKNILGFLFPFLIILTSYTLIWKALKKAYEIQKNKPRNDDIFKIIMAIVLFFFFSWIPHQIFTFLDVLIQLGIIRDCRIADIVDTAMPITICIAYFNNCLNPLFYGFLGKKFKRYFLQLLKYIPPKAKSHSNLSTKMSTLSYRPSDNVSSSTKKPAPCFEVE

A word on the Ki: it is a measure of affinity in units of concentration, obtained from inhibition or displacement. On to “AngII analog 11 (Tyr(Me) at position 8) (from UniProt P01019)”, for which the inhibition constant (Ki) in experiment [1] turned out to be 0.23 nM.

“AngII analog 11 (Tyr(Me) at position 8) (peptide)”: in experiment [2], the Gαq activation (GABY BRET sensor, HEK293 cells expressing AT1R), EC50 worked out at 1.1 nM and the β-arrestin2 recruitment (BRET, HEK293 cells expressing AT1R), EC50 amounted to 0.36 nM.

For the substance “AngII analog 12 (Tyr(Bzl) at position 8) (peptide)”, in experiment [2], the Gαq activation (GABY BRET sensor, HEK293 cells expressing AT1R), EC50 was > 10000 nM and the β-arrestin2 recruitment (BRET, HEK293 cells expressing AT1R), EC50 came to 2.5 nM.

“AngII analog 13 (Bip at position 8) (peptide)”: the β-arrestin2 recruitment (BRET, HEK293 cells expressing AT1R), EC50 in experiment [2] stood at 15 nM.

On to “AngII analog 14 (p-tBuPhe at position 8) (peptide)”, for which, in experiment [2], the β-arrestin2 recruitment (BRET, HEK293 cells expressing AT1R), EC50 is 26 nM.

The substance “AngII analog 15 (Dip at position 8) (peptide)” showed a Gαq activation (GABY BRET sensor, HEK293 cells expressing AT1R), EC50 in experiment [2] of 7.9 nM.

Consider “AngII analog 16 (Ser(Bzl) at position 8) (peptide)”, for which, in experiment [2], the Gαq activation (GABY BRET sensor, HEK293 cells expressing AT1R), EC50 is > 10000 nM.

“AngII analog 20 (4ThzAla at position 8) (peptide)” registered a Gαq activation (GABY BRET sensor, HEK293 cells expressing AT1R), EC50 in experiment [3] of 14 nM.

Regarding “AngII analog 22b ((m-NO2)Phe at position 8) (peptide)”, the Gαq activation (GABY BRET sensor, HEK293 cells expressing AT1R), EC50 in experiment [4] is 4.4 nM.

For the substance “AngII analog 23a ((o-CN)Phe at position 8) (peptide)”, in experiment [5], the Gαq activation (GABY BRET sensor, HEK293 cells expressing AT1R), EC50 was > 10000 nM and the β-arrestin2 recruitment (BRET, HEK293 cells expressing AT1R), EC50 was < 2.5 nM.

The substance “AngII analog 23b ((m-CN)Phe at position 8) (peptide)” displayed a Gαq activation (GABY BRET sensor, HEK293 cells expressing AT1R), EC50 in experiment [4] of 5.9 nM.

In experiment [6], “AngII analog 24a ((o-OH)Phe at position 8) (peptide)” had a Gαq activation (GABY BRET sensor, HEK293 cells expressing AT1R), EC50 of 2.1 nM.

“AngII analog 24b ((m-OH)Phe at position 8) (peptide)” came in with a Gαq activation (GABY BRET sensor, HEK293 cells expressing AT1R), EC50 in experiment [4] of 4.6 nM.

Substance “AngII analog 27b ((m-I)Phe at position 8) (peptide)” registered a Gαq activation (GABY BRET sensor, HEK293 cells expressing AT1R), EC50 in experiment [4] of 4.5 nM.

With “AngII analog 28b ((m-Br)Phe at position 8) (peptide)”, the Gαq activation (GABY BRET sensor, HEK293 cells expressing AT1R), EC50 in experiment [4] came out at 1.9 nM.

“AngII analog 29b ((m-Cl)Phe at position 8) (peptide)” returned a Gαq activation (GABY BRET sensor, HEK293 cells expressing AT1R), EC50 in experiment [4] of 1.5 nM.

In experiment [4], “AngII analog 29c ((p-Cl)Phe at position 8) (peptide)” yielded a Gαq activation (GABY BRET sensor, HEK293 cells expressing AT1R), EC50 of 2.5 nM.

As to “AngII analog 30a ((o-F)Phe at position 8) (peptide)”, the Gαq activation (GABY BRET sensor, HEK293 cells expressing AT1R), EC50 in experiment [6] came to 1 nM.

Take “AngII analog 30b ((m-F)Phe at position 8) (peptide)”: the Gαq activation (GABY BRET sensor, HEK293 cells expressing AT1R), EC50 in experiment [4] came out at 2.4 nM.

Take “AngII analog 30c ((p-F)Phe at position 8) (peptide)”: the Gαq activation (GABY BRET sensor, HEK293 cells expressing AT1R), EC50 in experiment [4] is 1.7 nM.

In experiment [7], TRV027 (peptide) showed an inhibitory constant (Ki) of 6.6 nM.
